Test [1] has as its target T1, recombinant human IL-1β (human, UniProt P01584 117-269).
T1 construct: It was biotinylated in the ELISA and in the yeast display experiments; also called Hu IL-1beta; huIL-1b
Briefly: SPR (BIAcore); KD calculated assuming an off-rate of 1x10^-6. The protocol:
(§1) Goat IgGs specific to human IgG Fc were covalently linked to the carboxy methyl dextran matrix on the CMS biosensor chip via free amine groups using an amine coupling kit and the immobilization wizard option in the Biacore instruments controlling software. Specifically, carboxyl groups of the dextran matrix on the chip were activated with NHS and EDC. Goat anti-human IgG Fc antibodies (25 μg/mL), diluted in 10 mM sodium acetate, pH 4.5, were injected across the activated surface. Once the level of binding response reached the desired value, unreacted groups were deactivated by injection of 1M ethanolamine. For binding of IL-1α & IL-1β to captured Ig, a 1 μg/mL concentration of Ig in HBS-EP+ was injected over the goat anti-human IgG Fc surface at a flow rate of 10 μL/min for 1 minute. The net difference in the baseline signal and the signal after the completion of the Ig injection was taken to represent the amount of bound Ig.
(§2) The potency of the 5 DVD-Igs containing affinity matured h1B12.1 domains to recombinant and native IL-1 antigens was determined using the MRC-5 bioassay as shown in Table 24. The binding kinetics of the DVD-Igs to recombinant human and cynomolgus IL-1α and IL-1β were determined using surface plasmon resonance. In some cases, the off-rate could not be determined as they reached the limit of detection of the instrument.

Test [2] addresses T1, recombinant human IL-1β. In words: SPR (BIAcore), DVD-Ig captured via goat anti-human IgG Fc. As to the method:
as §1, §2
A general note: SPR reads the build-up and loss of mass on a sensor chip optically.

For test [3], the target named is T2, recombinant cynomolgus IL-1β (cynomolgus, UniProt P79182 117-268).
T2 construct: It was biotinylated in the ELISA and in the yeast display experiments; also called Cyno IL-1β; Cyno IL-1beta
T2 sequence (looked up): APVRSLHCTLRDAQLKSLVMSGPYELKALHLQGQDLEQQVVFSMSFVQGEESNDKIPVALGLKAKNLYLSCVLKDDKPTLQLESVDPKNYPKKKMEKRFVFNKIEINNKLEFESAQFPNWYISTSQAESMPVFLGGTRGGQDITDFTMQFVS
The test is described as above. As to the method: as §1, §2

Test [4] addresses T3, recombinant human IL-1α (human, UniProt P01583 113-271).
T3 construct: also called Hu IL-1alpha; hIL-1α
T3 sequence: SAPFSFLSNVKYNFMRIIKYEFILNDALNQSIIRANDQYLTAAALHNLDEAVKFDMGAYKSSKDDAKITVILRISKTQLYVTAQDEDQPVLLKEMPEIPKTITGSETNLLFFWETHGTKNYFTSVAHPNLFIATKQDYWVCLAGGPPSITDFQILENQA
Described as above. The protocol: as §1, §2

For test [5], the target named is T4, recombinant cynomolgus IL-1α (cynomolgus, UniProt P79340 113-271).
T4 construct: also called Cyno IL-1α; Cyno IL-1alpha
T4 sequence (looked up): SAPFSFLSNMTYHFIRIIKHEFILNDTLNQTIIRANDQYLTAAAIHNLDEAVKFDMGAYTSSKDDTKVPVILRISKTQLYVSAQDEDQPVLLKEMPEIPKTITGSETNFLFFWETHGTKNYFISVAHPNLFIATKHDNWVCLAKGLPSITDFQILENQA
The test is described as above. The protocol: as §1, §2

Test [6] has as its target T1, recombinant human IL-1β. In words: SPR (BIAcore); the off-rate reached the limit of detection of the instrument. The protocol: as §1, §2
The target of test [7] is T1, recombinant human IL-1β. Briefly: cell-based or functional assay.
Test [8] concerns the target T5, purified native human IL-1β (human, UniProt P01584 117-269). In words: cell-based or functional assay.
For test [9], the target named is T2, recombinant cynomolgus IL-1β. Briefly: cell-based or functional assay.
For test [10], the target named is T3, recombinant human IL-1α. Briefly: cell-based or functional assay.
Test [11] addresses T6, native human IL-1α present in crude supernatants (human, UniProt P01583 113-271, limits assumed).
T6 sequence (looked up): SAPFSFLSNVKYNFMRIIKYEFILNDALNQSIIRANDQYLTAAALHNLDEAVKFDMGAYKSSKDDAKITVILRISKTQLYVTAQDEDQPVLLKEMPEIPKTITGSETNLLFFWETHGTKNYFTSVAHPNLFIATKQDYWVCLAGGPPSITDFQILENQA
Briefly: cell-based or functional assay.

Test [12] addresses T4, recombinant cynomolgus IL-1α. Briefly: cell-based or functional assay.
Test [13] deals with T1, recombinant human IL-1β. In words: cell-based or functional assay. The source holds these as a separate data set.
For test [14], the target named is T5, purified native human IL-1β. Briefly: cell-based or functional assay. The source holds these as a separate data set.
The target of test [15] is T2, recombinant cynomolgus IL-1β. Briefly: cell-based or functional assay. This is another data set of the same source.
In test [16] the target is T3, recombinant human IL-1α. In words: cell-based or functional assay. The source holds these as a separate data set.
The target of test [17] is T6, native human IL-1α present in crude …. In words: cell-based or functional assay. This is another data set of the same source.
Test [18] addresses T4, recombinant cynomolgus IL-1α. In words: cell-based or functional assay. This is another data set of the same source.
In test [19] the target is T1, recombinant human IL-1β. Briefly: SPR (Biacore), Ig captured via goat anti-human IgG Fc, antigen in solution. As to the method: as §1
The target of test [20] is T2, recombinant cynomolgus IL-1β. The description is as above. As to the method:
as §1

The target in test [21] is T3, recombinant human IL-1α. The test is described as above. As to the method:
as §1

Test [22] addresses T4, recombinant cynomolgus IL-1α. The description is as above. The protocol: as §1
Test [23] deals with T1, recombinant human IL-1β. In words: SPR (Biacore), average of 2 experiments. As to the method: as §1
Test [24] deals with T2, recombinant cynomolgus IL-1β. Briefly: SPR (Biacore), average of 2 experiments. As to the method: as §1
The target of test [25] is T1, recombinant human IL-1β. Briefly: SPR (Biacore), Expt 2. As to the method:
as §1

Test [26] has as its target T2, recombinant cynomolgus IL-1β. Briefly: SPR (Biacore), Expt 2. As to the method: as §1
Test [27] concerns the target T1, recombinant human IL-1β. Briefly: SPR (Biacore), Expt 1. The protocol: as §1
Test [28] has as its target T2, recombinant cynomolgus IL-1β. Briefly: SPR (Biacore), Expt 1. As to the method:
as §1

A value given as a limit tells only on which side of the number the result lay.

We go through 3 molecules from patent US20140178389A1 (AbbVie / Abbott, published 2014).

The term Kd denotes the free concentration of one partner at which half of the binding sites on the other are occupied at equilibrium, for simple one-to-one binding. In general, kon refers to a measure of how fast the partners come together. What is called koff is a measure of how fast the partners let go of each other.

B1: DVD3-h1B12.34-SS-X3, human anti-IL-1α/β DVD IgG1/k mut (234,235) (bispecific antibody)
heavy: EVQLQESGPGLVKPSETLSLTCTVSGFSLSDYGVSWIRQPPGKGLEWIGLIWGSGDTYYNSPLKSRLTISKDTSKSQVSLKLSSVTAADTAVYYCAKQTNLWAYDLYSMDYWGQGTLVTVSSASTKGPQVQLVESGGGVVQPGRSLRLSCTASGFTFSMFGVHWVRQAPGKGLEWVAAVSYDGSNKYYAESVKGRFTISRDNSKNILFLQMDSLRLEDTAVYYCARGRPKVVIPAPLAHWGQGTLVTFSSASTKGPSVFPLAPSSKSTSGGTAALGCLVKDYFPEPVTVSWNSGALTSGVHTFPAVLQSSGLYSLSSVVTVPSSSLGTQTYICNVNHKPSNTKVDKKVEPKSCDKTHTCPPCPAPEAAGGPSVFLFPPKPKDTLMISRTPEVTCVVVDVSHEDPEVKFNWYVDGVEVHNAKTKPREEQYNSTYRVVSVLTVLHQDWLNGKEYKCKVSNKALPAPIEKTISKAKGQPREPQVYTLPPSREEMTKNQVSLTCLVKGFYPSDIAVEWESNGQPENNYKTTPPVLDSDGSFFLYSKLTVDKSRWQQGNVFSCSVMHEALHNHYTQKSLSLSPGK
light: DIQMTQSPSSLSASVGDRVTITCQASQDIDDDLNWYQQKPGKAPKLLISLASILRPGVPSRFSGSGSGTDFTFTISSLQPEDFATYYCLQSDSFPLTFGQGTKLEIKRTVAAPDIQMTQSPSSVSASVGDRVTITCRASQGISSWLAWYQQKPGKAPKLLIYEASNLETGVPSRFSGSGSGSDFTLTISSLQPEDFATYYCQQTSSFLLSFGGGTKVEHKRTVAAPSVFIFPPSDEQLKSGTASVVCLLNNFYPREAKVQWKVDNALQSGNSQESVTEQDSKDSTYSLSSTLTLSKADYEKHKVYACEVTHQGLSSPVTKSFNRGEC
notes: also called PR-1358318
On to B1, for which the Kd was less than 0.026 pM in test [1], 0.67 pM in test [3], 30 pM in test [4] and 2300 pM in test [5]. Also, the association rate constant (kon) was determined as 3.9e+07 M⁻¹ s⁻¹ in [2], 1.8e+07 M⁻¹ s⁻¹ in test [3], 140000 M⁻¹ s⁻¹ in test [4] and 100000 M⁻¹ s⁻¹ in test [5]. For the same molecule, the dissociation rate constant (koff) in [3] is 1.2e-05 s⁻¹; in test [4] it was 4.2e-06 s⁻¹; in test [5], 0.00024 s⁻¹; in test [6], less than 1e-06 s⁻¹. Moreover, the “Potency (IC50) pM, MRC-5 bioassay” value in [7] turned out to be 42.2 pM; in test [8], 0.998 pM; in test [9] it was 2.13 pM; in test [10], 41.3 pM; in [11] it was 50.4 pM; in test [12], 1900 pM.

B2: 1B12.1-SS-X3 DVD-Ig IgG1/k mut (234,235) (bispecific antibody)
heavy: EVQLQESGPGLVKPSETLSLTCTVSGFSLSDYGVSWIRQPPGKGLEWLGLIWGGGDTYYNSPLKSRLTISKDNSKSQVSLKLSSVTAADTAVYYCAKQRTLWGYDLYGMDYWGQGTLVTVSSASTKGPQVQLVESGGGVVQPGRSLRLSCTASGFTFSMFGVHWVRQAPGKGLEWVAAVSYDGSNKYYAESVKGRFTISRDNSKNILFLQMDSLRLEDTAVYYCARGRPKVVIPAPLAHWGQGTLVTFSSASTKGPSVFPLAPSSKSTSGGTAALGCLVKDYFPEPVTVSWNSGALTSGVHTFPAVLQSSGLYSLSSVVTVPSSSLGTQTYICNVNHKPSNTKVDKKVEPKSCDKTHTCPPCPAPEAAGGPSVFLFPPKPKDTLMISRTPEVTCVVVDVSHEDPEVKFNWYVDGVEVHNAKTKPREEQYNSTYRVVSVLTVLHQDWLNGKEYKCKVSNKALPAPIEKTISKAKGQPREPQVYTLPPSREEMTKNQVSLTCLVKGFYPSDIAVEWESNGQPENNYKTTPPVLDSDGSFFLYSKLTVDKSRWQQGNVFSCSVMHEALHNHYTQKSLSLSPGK
light: DTQVTQSPSSLSASVGDRVTITCITSTDIDVDMNWYQQKPGKPPKLLISQGNTLRPGVPSRFSSSGSGTDFTFTISSLQPEDFATYYCLQSDNLPLTFGQGTKLEIKRTVAAPDIQMTQSPSSVSASVGDRVTITCRASQGISSWLAWYQQKPGKAPKLLIYEASNLETGVPSRFSGSGSGSDFTLTISSLQPEDFATYYCQQTSSFLLSFGGGTKVEHKRTVAAPSVFIFPPSDEQLKSGTASVVCLLNNFYPREAKVQWKVDNALQSGNSQESVTEQDSKDSTYSLSSTLTLSKADYEKHKVYACEVTHQGLSSPVTKSFNRGEC
notes: also called PR-1308565
For B2, the “Potency IC50 (pM), MRC-5 bioassay (IL-8 secretion)” value in test [13] was determined as 26 pM; in test [14], 156 pM; in test [15], 461 pM; in test [16] it was 27 pM; in test [17], 79 pM; in test [18], 2510 pM. The Kd in test [19] was less than 820 pM; in [20], 110 pM; in [21], 120 pM; in test [22] it was 3500 pM. In addition, the koff in test [19] worked out at 0.00082 s⁻¹; in [20], 0.0008 s⁻¹; in test [21], 2.4e-05 s⁻¹; in test [22] it was 0.00026 s⁻¹. The kon was greater than 1e+06 M⁻¹ s⁻¹ in test [19], 7.3e+06 M⁻¹ s⁻¹ in [20], 210000 M⁻¹ s⁻¹ in test [21] and 74000 M⁻¹ s⁻¹ in test [22].

B3: 1B12.9, human anti-IL-1β IgG1/k mut (234,235) (antibody, V domains shown)
VH: EVQLQESGPGLVKPSETLSLTCTVSGFSLSDYGVSWIRQPPGKGLEWLGLIWGGGDTYYNSPLKSRLTISKDNSKSQVSLKLSSVTAADTAVYYCAKQRTLWGYDLYGMDYWGQGTLVTVSS
VL: DTQMTQSPSSLSASVGDRVTITCITSTDIDVDMNWYQQKPGKPPKLLISQGNTLRPGVPSRFSSSGSGTDFTFTISSLQPEDFATYYCLQSDNLPLTFGQGTKLEIKR
notes: also called PR-1317335; mAb 1B12.9
Regarding B3, the “Potency IC50 (pM), MRC-5 bioassay (IL-8 secretion)” value in [13] is 691 pM; in test [14], 214 pM; in test [15] it was 352 pM. Besides, the Kd in test [23] is 140 pM; in test [24], 550 pM; in test [25], 130 pM; in [26] it was 600 pM; in test [27], 140 pM; in [28] it was 490 pM. Moreover, the koff was determined as 0.00077 s⁻¹ in test [23]; 0.00092 s⁻¹ in test [24]; 0.00077 s⁻¹ in test [25]; 0.00085 s⁻¹ in test [26]; 0.00076 s⁻¹ in test [27]; 0.00098 s⁻¹ in test [28]. The on-rate (kon) in test [23] was determined as 5.7e+06 M⁻¹ s⁻¹; in test [24], 1.7e+06 M⁻¹ s⁻¹; in [25], 5.8e+06 M⁻¹ s⁻¹; in test [26] it was 1.4e+06 M⁻¹ s⁻¹; in test [27], 5.5e+06 M⁻¹ s⁻¹; in [28], 2e+06 M⁻¹ s⁻¹.
